Assay results reported in publication PMC2871031 (Structure (London, England : 1993), 2010).
Where “and” joins values, the source holds several entries; their conditions need not be identical. Identical values can stand only once.

What was measured:
[1] = target: ClpA (wild type), ATPγS-assembled hexamer (E. coli) (UniProt P0ABH9)
[2] = target: ClpA-Δ10 (linker deletion mutant, residues 145 to 154 deleted) (E. coli) (UniProt P0ABH9)
[3] = target: ClpA-Δ15 (linker deletion mutant, residues 145 to 159 deleted) (E. coli) (UniProt P0ABH9)
[4] = target: ClpA-Δ153 (N-domain-deleted form of ClpA) (E. coli) (UniProt P0ABH9)
[5] = target: the molecule itself; assay: cryo-EM structure
[6] = target: T1, ClpP peptidase (tetradecamer) (UniProt P0A6G7 15-207); assay: cryo-EM structure
[7] = target: the molecule itself; assay: cryo-electron microscopy with 2D averaging and variance maps of side-views
[8] = target: T1, ClpP peptidase (tetradecamer); assay: as above

T1 sequence (P0A6G7 15-207): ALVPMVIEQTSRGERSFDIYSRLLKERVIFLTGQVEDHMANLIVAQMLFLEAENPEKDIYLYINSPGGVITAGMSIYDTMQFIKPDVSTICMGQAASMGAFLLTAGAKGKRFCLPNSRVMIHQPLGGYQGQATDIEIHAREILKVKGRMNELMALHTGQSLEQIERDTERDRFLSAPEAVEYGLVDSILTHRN

GFP-SsrA
Km of GFP-SsrA degradation, 37 °C (μM protein monomer) [1]: 1.7
Km of GFP-SsrA degradation, 37 °C (μM protein monomer) [2]: 1.7
Km of GFP-SsrA degradation, 37 °C (μM protein monomer) [3]: 1.5
Km of GFP-SsrA degradation, 37 °C (μM protein monomer) [4]: 1

α-casein (natural protein)
Km of α-casein degradation, 37 °C (μM protein monomer) [1]: 0.2
Km of α-casein degradation, 37 °C (μM protein monomer) [3]: 0.35

B1: ClpA (wild type), ATPγS-assembled hexamer (enzyme, E. coli, UniProt P0ABH9 1-758, looked up)
chain: MLNQELELSLNMAFARAREHRHEFMTVEHLLLALLSNPSAREALEACSVDLVALRQELEAFIEQTTPVLPASEEERDTQPTLSFQRVLQRAVFHVQSSGRNEVTGANVLVAIFSEQESQAAYLLRKHEVSRLDVVNFISHGTRKDEPTQSSDPGSQPNSEEQAGGEERMENFTTNLNQLARVGGIDPLIGREKELERAIQVLCRRRKNNPLLVGESGVGKTAIAEGLAWRIVQGDVPEVMADCTIYSLDIGSLLAGTKYRGDFEKRFKALLKQLEQDTNSILFIDEIHTIIGAGAASGGQVDAANLIKPLLSSGKIRVIGSTTYQEFSNIFEKDRALARRFQKIDITEPSIEETVQIINGLKPKYEAHHDVRYTAKAVRAAVELAVKYINDRHLPDKAIDVIDEAGARARLMPVSKRKKTVNVADIESVVARIARIPEKSVSQSDRDTLKNLGDRLKMLVFGQDKAIEALTEAIKMARAGLGHEHKPVGSFLFAGPTGVGKTEVTVQLSKALGIELLRFDMSEYMERHTVSRLIGAPPGYVGFDQGGLLTDAVIKHPHAVLLLDEIEKAHPDVFNILLQVMDNGTLTDNNGRKADFRNVVLVMTTNAGVRETERKSIGLIHQDNSTDAMEEIKKIFTPEFRNRLDNIIWFDHLSTDVIHQVVDKFIVELQVQLDQKGVSLEVSQEARNWLAEKGYDRAMGARPMARVIQDNLKKPLANELLFGSLVDGGQVTVALDKEKNELTYGFQSAQKHKAEAAH
stoichiometry N [5]: 6 subunits
stoichiometry N [6]: 1 ClpA hexamers per ClpP tetradecamer

B2: ClpA-Δ10 (linker deletion mutant, residues 145 to 154 deleted) (enzyme, E. coli, UniProt P0ABH9 1-758, looked up)
chain: MLNQELELSLNMAFARAREHRHEFMTVEHLLLALLSNPSAREALEACSVDLVALRQELEAFIEQTTPVLPASEEERDTQPTLSFQRVLQRAVFHVQSSGRNEVTGANVLVAIFSEQESQAAYLLRKHEVSRLDVVNFISHGTRKSQPNSEEQAGGEERMENFTTNLNQLARVGGIDPLIGREKELERAIQVLCRRRKNNPLLVGESGVGKTAIAEGLAWRIVQGDVPEVMADCTIYSLDIGSLLAGTKYRGDFEKRFKALLKQLEQDTNSILFIDEIHTIIGAGAASGGQVDAANLIKPLLSSGKIRVIGSTTYQEFSNIFEKDRALARRFQKIDITEPSIEETVQIINGLKPKYEAHHDVRYTAKAVRAAVELAVKYINDRHLPDKAIDVIDEAGARARLMPVSKRKKTVNVADIESVVARIARIPEKSVSQSDRDTLKNLGDRLKMLVFGQDKAIEALTEAIKMARAGLGHEHKPVGSFLFAGPTGVGKTEVTVQLSKALGIELLRFDMSEYMERHTVSRLIGAPPGYVGFDQGGLLTDAVIKHPHAVLLLDEIEKAHPDVFNILLQVMDNGTLTDNNGRKADFRNVVLVMTTNAGVRETERKSIGLIHQDNSTDAMEEIKKIFTPEFRNRLDNIIWFDHLSTDVIHQVVDKFIVELQVQLDQKGVSLEVSQEARNWLAEKGYDRAMGARPMARVIQDNLKKPLANELLFGSLVDGGQVTVALDKEKNELTYGFQSAQKHKAEAAH
stoichiometry N [7]: 6 subunits
stoichiometry N [8]: 1 ClpA hexamers per ClpP tetradecamer and 2 ClpA hexamers per ClpP tetradecamer

B3: ClpA-Δ15 (linker deletion mutant, residues 145 to 159 deleted) (enzyme, E. coli, UniProt P0ABH9 1-758, looked up)
chain: MLNQELELSLNMAFARAREHRHEFMTVEHLLLALLSNPSAREALEACSVDLVALRQELEAFIEQTTPVLPASEEERDTQPTLSFQRVLQRAVFHVQSSGRNEVTGANVLVAIFSEQESQAAYLLRKHEVSRLDVVNFISHGTRKEEQAGGEERMENFTTNLNQLARVGGIDPLIGREKELERAIQVLCRRRKNNPLLVGESGVGKTAIAEGLAWRIVQGDVPEVMADCTIYSLDIGSLLAGTKYRGDFEKRFKALLKQLEQDTNSILFIDEIHTIIGAGAASGGQVDAANLIKPLLSSGKIRVIGSTTYQEFSNIFEKDRALARRFQKIDITEPSIEETVQIINGLKPKYEAHHDVRYTAKAVRAAVELAVKYINDRHLPDKAIDVIDEAGARARLMPVSKRKKTVNVADIESVVARIARIPEKSVSQSDRDTLKNLGDRLKMLVFGQDKAIEALTEAIKMARAGLGHEHKPVGSFLFAGPTGVGKTEVTVQLSKALGIELLRFDMSEYMERHTVSRLIGAPPGYVGFDQGGLLTDAVIKHPHAVLLLDEIEKAHPDVFNILLQVMDNGTLTDNNGRKADFRNVVLVMTTNAGVRETERKSIGLIHQDNSTDAMEEIKKIFTPEFRNRLDNIIWFDHLSTDVIHQVVDKFIVELQVQLDQKGVSLEVSQEARNWLAEKGYDRAMGARPMARVIQDNLKKPLANELLFGSLVDGGQVTVALDKEKNELTYGFQSAQKHKAEAAH
stoichiometry N [7]: 6 subunits
stoichiometry N [8]: 1 ClpA hexamers per ClpP tetradecamer and 2 ClpA hexamers per ClpP tetradecamer
